{"source": "patent US6444644B1", "about": "“Anticoagulant peptide fragments derived from apolipoprotein B-100” (University College London, priority 1996, dated 2002)", "molecules": {"B1": {"name": "apolipoprotein B-100 control peptide (fragment 3358-3372) (peptide)", "peptide": "TRLTRKRGLKLATAL"}, "B2": {"name": "KRAD-14 peptide (recombinant, released from the biotinylated fusion protein with chymotrypsin) (peptide)", "peptide": "KAQSKKNKHRHSTT"}, "B3": {"name": "KRAD-98 peptide (recombinant, released with enterokinase) (peptide)", "peptide": "LKDESLWEKTGLKEFLKTTKQSFDLSVKAQYKKNKHRHSITNPLAVLCEFISQSIKSFDRHFEKNRNNALDFVTKSYNETKIKFDKYKAEKSHDELPR"}}, "key": {"thromboplastin [1]": {"biological_target": "T1, thromboplastin (Homo sapiens, UniProt P13726)", "T1 construct": "purchased Gamidor Ltd. (Oxfordshire, U.K.)", "T1 sequence (P13726 33-295)": "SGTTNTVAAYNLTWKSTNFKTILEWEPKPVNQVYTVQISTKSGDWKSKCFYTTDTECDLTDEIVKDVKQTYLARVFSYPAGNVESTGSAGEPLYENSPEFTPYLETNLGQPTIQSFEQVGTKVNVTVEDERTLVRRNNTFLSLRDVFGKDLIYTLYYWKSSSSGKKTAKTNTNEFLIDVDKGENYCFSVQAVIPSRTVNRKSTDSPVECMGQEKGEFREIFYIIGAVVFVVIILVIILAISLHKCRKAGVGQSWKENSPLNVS", "assay": "Effect of thromboplastin peptide (58-66) on thromboplastin activity (one-stage prothrombin time assay)", "format": "biochemical", "details": "for effect on the procoagulant activity of thromboplastin (in words) / Procoagulant Activity of thromboplastin: peptide 1 μM, thromboplastin 100 nM; for Procoagulant Activity of thromboplastin: 5 min, 37° C., distilled water 6.70 U/ml", "protocol": "The control peptide ([…]) was reconstituted to 1 mM in distilled water. The control peptide was similar but not identical to the thromboplastin (58-66), in size, charge and amino acid composition but with a different sequence. In order to assess the effect of the thromboplastin peptide (58-66) on the activity of thromboplastin, samples of recombinant thromboplastin (100 nM) were incubated for 5 min, with the isolated thromboplastin-peptide ([…]), control peptide (1 μM) or distilled water at 37° C. prior to assaying using the one-stage prothrombin time assay. The activity was calculated from a thromboplastin standard curve.\nThree aliquots of thromboplastin (100 nM) were incubated for 5 min, with the isolated thromboplastin peptide (1 μM), control peptide (1 μM) or distilled water at 37° C. prior to assaying using the one-stage prothrombin time assay. The activity was calculated from a thromboplastin standard curve. The data were obtained from 3 separate experiments."}, "[2]": {"biological_target": "T2, interaction of thromboplastin with apo B-100 (Homo sapiens, UniProt P13726)", "T2 construct": "purchased Gamidor Ltd. (Oxfordshire, U.K.) for thromboplastin; apoB-100 isolated and reconstituted in house", "T2 sequence (P13726 33-295)": "as above", "assay": "Influence of peptide 58-66 on the inhibition of thromboplastin by apo B-100", "format": "biochemical", "details": "peptide 1 μM, thromboplastin 100 nM, apo B-100 250 nM, 37° C., up to 180 min", "protocol": "(250 nM final concentration) in the presence and absence of the isolated thromboplastin peptide (1 μM) or control peptide (1 μM), at 37° C. Aliquots (100 μl) were removed at the start and at various intervals up to 180 min and assayed by means of the one-stage prothrombin time assay. The residual activity of thromboplastin measured in the samples was compared to the initial activity, at time zero, and percentage inhibition calculated.\nSamples of thromboplastin (100 nM) were incubated with reconstituted apo B-100 (250 nM final concentration) in the presence (▪) and absence (▾) of the isolated thromboplastin peptide (1 μM), at 37° C. Aliquots ([…]) were removed at the start (time zero) and at various intervals up to 180 min and assayed by means of the one-stage prothrombin time assay. The data presented are representative of 5 independent experiments."}, "thromboplastin [3]": {"biological_target": "T1, thromboplastin", "assay": "Time-course inhibition of thromboplastin procoagulant activity (one-stage prothrombin time and two-stage amidolytic assay)", "format": "biochemical", "details": "500 nM, 37° C.; for effect on thromboplastin (in words): up to 120 min", "protocol": "The one stage prothrombin time assay was carried out by the addition of 100 μl of the sample to 100 μl of 25 mM CaCl2 solution and incubation prior to addition of 100 μl of control plasma. The clotting time was measured on the coagulometer. The two-stage amidolytic assay was carried according to published procedures. In all cases the thromboplastin activity was calculated from a standard curve prepared previously and the percentage inhibition was calculated as 100×[…].\nThe apolipoprotein B-100 control peptide (fragment 3358-3372) containing the sequence TRLTRKRGLKLATAL was reconstituted in distilled water to 1 mM. The freeze-dried samples were reconstituted in distilled water to a concentration of 1 mM. Two 200 μl samples of thromboplastin (10 U/ml) were incubated with 500 nM KRAD-14 or apolipoprotein B-100 control peptide at 37° C. for 45 min. Another set of 200 μl samples of thromboplastin (10 U/ml) were incubated with either 500 nM KRAD-98 or the chloramphenicol acetyltransferase control protein. […] Following the incubation the thromboplastin activity in all the samples was measured by means of the one-stage prothrombin time assay and the two-stage amidolytic assay and the percentage inhibition calculated against the control containing distilled water.\nThe above experiments were repeated using 1 ml samples containing recombinant thromboplastin (10 U/ml) mixed with either 500 nM KRAD-14, 500 nM KRAD-98 or 500 nM apolipoprotein B-100, reconstituted as described before. The concentrations used are equivalent to that of apolipoprotein B-100 in normal plasma. 100 μl of the each sample was removed immediately and assayed for thromboplastin activity, by means of the one-stage prothrombin time assay. The rest of the samples were incubated at 37° C. and further 100 μl samples were removed at intervals up to 120 min and measured as before. The percentage inhibition was calculated against a control sample of thromboplastin.\nThree 1 ml samples containing recombinant thromboplastin (10 U/ml) were mixed with 500 nM KRAD-14 (solid square), 500 nM KRAD-98 (open square) or 500 nM apolipoprotein […] (triangle), reconstituted as described before. The concentrations used are equivalent to that of apolipoprotein B-100 in normal plasma. 100 μl of the each sample was removed immediately and assayed for thromboplastin activity, by means of the one-stage prothrombin time assay. The rest of the samples were incubated at 37° C. and further 100 μl samples were removed at intervals up to 120 min and measured as before. The thromboplastin activity was calculated from a standard curve prepared previously and the percentage inhibition was calculated as 100×[…]. The curves are typical of data from four sets of experiments."}, "[4]": {"biological_target": "T3, thromboplastin, reconstituted in phosphatidylcholine (Homo sapiens, UniProt P13726)", "T3 construct": "purchased Gamidor Ltd. (Oxfordshire, U.K.)", "T3 sequence (P13726 33-295)": "as above", "assay": "Inhibition of delipidated thromboplastin reconstituted in phosphatidylcholine", "format": "biochemical", "details": "500 nM sample, 37° C., 30 min; for Procoagulant Activity: distilled water control 4.70 U/ml", "protocol": "In other experiments, recombinant thromboplastin (1 mg/ml) was delipidated with chloroform/methanol as described previously, to remove phosphatidylserine and other lipids and reconstituted with phosphatidylcholine (1 mg/ml) to differentiate between the effects of the prepared samples on the protein moiety of thromboplastin and any effects on the thromboplastin-associated phosphatidylserine. […] The percentage inhibition was calculated against the control sample.\nRecombinant thromboplastin was delipidated to remove phosphatidylserine and other lipids and reconstituted at 1 mg/ml with phosphatidylcholine (1 mg/ml). […] The % Inhibition was calculated against the control. The data were obtained from 3 separate experiments."}, "[5]": {"biological_target": "recombinant thromboplastin (UniProt P13726 33-295, limits assumed)", "assay": "cell-based or functional assay"}, "[6]": {"tested_on": "T4, KRAD-14 peptide (recombinant, released from the biotinylated fusion protein with chymotrypsin)", "T4 sequence": "KAQSKKNKHRHSTT"}, "thromboplastin [7]": {"biological_target": "T1, thromboplastin", "assay": "Inhibition of thromboplastin in the presence of plasma", "format": "biochemical", "protocol": "[…] The samples were then assayed by addition of 100 μl of […] CaCl2 solution and measurement on the coagulometer. The percentage inhibition in each case calculated against a similarly treated sample, containing thromboplastin only."}}, "data": [{"molecule": "DLTDEIVKD [thromboplastin-derived peptide (58-66), recombinant peptide of thromboplastin residues 58-66]", "values": [{"measurement": "effect on the procoagulant activity of thromboplastin (in words)", "setting": "thromboplastin [1]", "result": "enhanced the procoagulant activity of thromboplastin"}, {"measurement": "endogenous procoagulant activity of the peptide", "setting": "thromboplastin [1]; peptide alone", "result": "no endogenous procoagulant activity"}, {"measurement": "Procoagulant Activity of thromboplastin", "setting": "thromboplastin [1]", "result": "Peptide 56-66 (7.45 U/ml)"}, {"measurement": "effect on the rate of inhibition of thromboplastin activity by reconstituted apo B-100", "setting": "[2]", "result": "accelerated the rate of inhibition of thromboplastin activity"}]}, {"molecule": "Reconstituted apolipoprotein B-100: apolipoprotein B-100 isolated from LDL by delipidation and gel filtration, reconstituted in phosphatidylcholine", "values": [{"measurement": "inhibition of the procoagulant activity of thromboplastin", "setting": "thromboplastin [3]; 90 min incubation", "result": "> 95", "unit": "%"}, {"measurement": "% Inhibition", "setting": "[4]; against distilled water control", "result": 62, "unit": "%"}, {"measurement": "Procoagulant Activity", "setting": "[4]", "result": "(1.79 U/ml)"}]}, {"molecule": "TRLTRKRGLKLATAL [APO B-100 control peptide (3358-3372), apolipoprotein B-100 control peptide purchased from Sigma, reference compound]", "values": [{"measurement": "effect on thromboplastin (in words)", "setting": "thromboplastin [3]; listed as cationic peptide from apolipoprotein B-100 (fragment 3358-3372)", "result": "had no effect"}, {"measurement": "effect on thromboplastin (in words)", "setting": "thromboplastin [3]; listed as control 15 mer apolipoprotein B-100 (fragment 3358-3372) peptide", "result": "neither the control 15 mer apolipoprotein B-100 (fragment 3358-3372) peptide nor the chloramphenicol acetyltransferase control protein had any detectable effect"}, {"measurement": "Procoagulant Activity", "setting": "[4]", "result": "(3358-3372) (4.68 U/ml)"}]}, {"molecule": "VQGEESDNK [Control peptide]", "values": [{"measurement": "effect on the procoagulant activity of thromboplastin (in words)", "setting": "thromboplastin [1]", "result": "did not have any significant effect"}, {"measurement": "Procoagulant Activity of thromboplastin", "setting": "thromboplastin [1]", "result": "Control peptide (6.75 U/ml)"}]}, {"molecule": "reconstituted apolipoprotein B-100 (from UniProt P04114 28-4563)", "values": [{"measurement": "% Inhibition of thromboplastin delipidated and reconstituted in phosphatidylcholine; 500 nM, 30 min, 37 C", "setting": "[5]", "result": 62, "unit": "%"}, {"measurement": "Procoagulant Activity left of thromboplastin reconstituted in phosphatidylcholine; 500 nM, 30 min, 37 C", "setting": "[5]", "result": 1.79, "unit": "U/ml"}, {"measurement": "inhibition of procoagulant activity of thromboplastin, time course (FIG. 1), 70 min", "setting": "[5]", "result": "> 90", "unit": "%"}]}, {"molecule": "thrombin", "values": [{"measurement": "clotting ability and amidolytic proteolytic activity of thrombin (100 nM) after incubation with 500 nM peptide", "setting": "[6]", "result": "The KRAD-14 peptide (500 nM) did not affect either the clotting ability or the amidolytic proteolytic activity of thrombin (100 nM)"}]}, {"molecule": "B1", "values": [{"measurement": "% Inhibition of thromboplastin delipidated and reconstituted in phosphatidylcholine; 500 nM, 30 min, 37 C", "setting": "[5]", "result": 0.4, "unit": "%"}, {"measurement": "Procoagulant Activity left of thromboplastin reconstituted in phosphatidylcholine; 500 nM, 30 min, 37 C", "setting": "[5]", "result": 4.68, "unit": "U/ml"}]}, {"molecule": "B2", "values": [{"measurement": "% Inhibition of thromboplastin delipidated and reconstituted in phosphatidylcholine; 500 nM, 30 min, 37 C", "setting": "[5]", "result": 99, "unit": "%"}, {"measurement": "Procoagulant Activity left of thromboplastin reconstituted in phosphatidylcholine; 500 nM, 30 min, 37 C", "setting": "[5]", "result": 0.05, "unit": "U/ml"}]}, {"molecule": "B3", "values": [{"measurement": "influence of plasma on the ability to inhibit thromboplastin activity (in words)", "setting": "thromboplastin [7]; plasma included during the incubation prior to assaying, peptide 500 nM", "result": "did not significantly affect"}, {"measurement": "inhibition of thromboplastin activity in the presence of plasma", "setting": "thromboplastin [7]; plasma present, 37° C., 40 min incubation", "result": 95, "unit": "%"}, {"measurement": "inhibition of the procoagulant activity of thromboplastin", "setting": "thromboplastin [3]; 45 min incubation", "result": 95, "unit": "%"}, {"measurement": "% Inhibition of thromboplastin delipidated and reconstituted in phosphatidylcholine; 500 nM, 30 min, 37 C", "setting": "[5]", "result": 85, "unit": "%"}, {"measurement": "Procoagulant Activity left of thromboplastin reconstituted in phosphatidylcholine; 500 nM, 30 min, 37 C", "setting": "[5]", "result": 0.71, "unit": "U/ml"}, {"measurement": "Procoagulant Activity", "setting": "[4]", "result": "(0.71 U/ml)"}]}]}
